Results reported in the DeepSol protein solubility set.

Experiment: soluble on expression in E. coli; label from the status in PepcDB or PDB records

Sequence | soluble on expression in E. coli
MSLYSDQLVCPAHVPRGSPEGRVDAIAAMVTTRTAVQAPVERRTALFVNGQAWLTAQTTPHDLADWAVGRLCGEGLIAGPEEIAHLAVDEAGPCVHAVLPRVRTPAPPAPVAPGPRVAEAQLLRWMQEMLAQAPLYRATGGMHVAMAVRADSGEQIVREDIGRHQAVDKVLGAARLAGWPPAQVVVLTSGRISAEMCARVARFGAPVCASRTAATDEAWALATRLGMDLVGYVRTAASLIVYTTGNRVARRIEPEGHHHHHH | soluble
MSLYSVISKILNFILVKMSKSLYVIGKDNIPKDSKYVVTCTHESYNEVIMLGMALYPNQIHYMAKKELFKNKWIGKFLTSLNAFPVDRENPGPSTLKRPINLLKDNKTVGIFPTGSRTSQEGAPLKRGASTIAMLSKSPILPVAYVGPTKIHGLLTGQAYINIGKPIDINDLPKDLKRNERIDYITKEIETRTAKLQQELHEIVKSEGHHHHHH | soluble
MSMAMSQSNRELVVDFLSYKLSQKGYSWSQFSDVEENRTEAPEGTESEMETPSAINGNPSWHLADSPAVNGATGHSSSLDAREVIPMAAVKQALREAGDEFELRYRRAFSDLTSQLHITPGTAYQSFEQVVNELFRDGVNWGRIVAFFSFGGALCVESVDKEMQVLVSRIAAWMATYLNDHLEPWIQENGGWDTFVELYGNNAAAESRKGQERLEHHHHHH | soluble
MSMIDIDPPSFQSPRPIAGDDGNRRTVLYGDYTVFSVFQPVFSVSHRRAIGYHASLRAHDSQGNQVPSHDVFTQAARRGDLLELGRLAESLHLGNFHTFDSHDEWLFLSLHPAALMDTVYGDALLANLKALGLPPQRVVLEVPEQAGGETPRFAAIVDGLRKAGFLIALGGFGAKHSNIDRVWHLHPDIVTLDRGILAQASEHSHLERVLPGLVSLLHESGQLVLMGGITTEREALIALECDVDFVQGQYFAGP | not soluble
MSMLSMDGIVAGGGSSSGGGERSFVLEQKMFNTGPQNKALPTVQSSGSSSNHAPIVGESPLGTVSSTMATGDTGRVGNVTYMSSGMLGATQFMPQNSSHPSTSVMMQQVPPQNGGATRSSPTEMQQCMQAMSEDSIEMRDYNSGVHHMHPHQMQMQQQQQHHQQQYNMSYHNHQQQMQQMHYHQQQQQYQQQQAQHHQMYAPQIQQQQQQPQQQSQQQSAQQPQQSSAALQHVNESSNLSSAGSISDREPEQHGGTPQRPTAPQSSTATDKKTRKRRKAGPTEDQATPKQERKITEFMKVGGEVASGNSVARCLLTEYHQNQGSPKRQPAVQQNGSNSYDSQQQQPQMNQHEMQNSYWGVATPSLGVNNRGTPTPTQQQHYSSDSNSNSNQSPPGQGNQSGRMVRTIDEETQTDSSLSQANPQNADEVAKMNRIIEDHRRQIEELNSKNSLERRKNEASKETIKRLLIDKNQIERKALRDKTAADSPRIGCFKTTRTGDSFRDQWVDGWAFAEMDKKTEQINAERNEIASASALLKKRKPLGIGKEPKRPQAVNSQNDSNGMQPSTSSNTNGDDAIFRRPEEPKEIQYQEYIELDEIYKLRREHLRKEETDLSMEKERLEKEKQHHVRELKRASNESASQFNDHRLLHKRYLMLNLLGKGGFSEVWKAFDIEENRYVACKIHHVNKDWKEEKKANYVKHAMREKDIHKSLDHCRIVKQYDLLTIDNHSFCTVLEYVPGNDLDFYLKQNRSISEKEARSIIMQVVSALVYLNEKSTPIIHYDLKPANILLESGNTSGAIKITDFGLSKIMEGESDDHDLGIELTSQFAGTYWYLPPETFIVPPPKITCKVDVWSIGVIFYQCIYGKKPFGNDLTQQKILEYNTIINAREVSFPSKPQVSSAAQDFIRRCLQYRKEDRADVFELAKHELFRPRGAIRASVAGSVSSPSIPRSPSVNREDDNM | not soluble
MSNAFEYLRTYVESTTETDAAVARAREDAAEFGLPAPDEMTGQLLTTLAATTNGNGSTGAIAITPAAGLVGLYILNGLADNTTLTCIDPESEHQRQAKALFREAGYSPSRVRFLLSRPLDVMSRLANDSYQLVFGQVSPMDLKALVDAAWPLLRRGGALVLADALLDGTIADQTRKDRDTQAARDADEYIRSIEGAHVARLPLGAGLTVVTKALEHHHHHH | soluble
MSNDQLKSKLREFFDRQPDQSEKAHQDSKIFEVLYSQFLENQHCIDWNSWKFLEEKHQVTLKDLEPFDKSRFNILNKLAVIKLNGGLGTTMGCSKAKSLVEVREGYTFMDLAVLEHQKMCEAHNVDTPLYLMNSFYTDEDTKKYLAEKGYSNVKTFVQSKCPRLDAETKLPIEDENEDWGDDAWCPPGHGNIFQSLQNSGVLDQLLADGREIIFVSNIDNTGANTDLQIVQLMLDKNVDYIMECTPKTQVDVKGGTLIDIGGRMMHLEMPQVPAENLPDFCSTKVFKIFNTNNIYVNLKAVKKLLPDIKSEIIVNKKTIRSREVLQLEFSIGGCIKNFDNALCVHVERKRFRPVKNLGDLLSLRSTLCDLDHSTFKVHHNHELGAPPVISLDPSIYNSVEVVDLKFPHPLVMDNCSEFAVVGDVTFGKNVKLSGKVTVNGKTESPGVVPDGTVLKDQEYIAE | not soluble
MSNEHTRPPLPPFTRESAIEKVRLAEDGWNTREPEKIALAYTVDTQWRNRAEFANNREEARDFLTRKWKKELDYRLIKELWAFTDNRIAVRYAYEWHDDSGNWFRSYGNENWEFEADGLMHRRFACINDMPIKESERKFHWPLGRRPDDHPGLTELGLLEHHHHHH | not soluble
MSNEMKILLANPRGFCAGVDRAISIVERALELYQPPIYVRHEVVHNRFVVEGLKQRGAIFVEELHEVPDNNIVIFSAHGVSQAVRQEAKQRDLTVFDATCPLVTKVHMEVARASRRNMEVVLIGHAGHPEVEGTMGQYSSETGGMYLVETPADVEKLKAIVKDPSDLHYVSQTTLSVDETADVIEELRRVFPDIQGPRKDDICYATQNRQDAVRELAGDVDVMVVVGSKNSSNSTRLKELAEKLGTPGYLTDCPEDIKPEWFEGKTKVGVTAGASAPEELVNQILERIKELVGARSVDEVLGREENMFFEVPKELQIKQVD | not soluble
MSNIIVLSGSPRKGGNTDLLVDAFVKGAEKSNNVEVVSVAYYKVNPCIGCNSCFDRAGHECFQQDDMQIVYDKLKCADVIVVASPVYFYGVSAQLKAIIDRLHTPMRNDFKVKKLALILVGAAVLPELFDSIKIQYQLVLNFFKLEDAGMVLVRGAKDKGDVRNTDGLDEAYRLGLAME | not soluble
MSNKLETGIQYMQEGNWEEAAKNFTEAIEENPKDALGYINFANLLDVLGDSERAILFYKRALELDDKSAAAYYGLGNVYYGQEQFTEAKAVFEQAMQAGLQSADVTFMLGITHVQLGNDRLALPFLQRATELDENDVEAVFQCGLCFARLEHVQEAKPYFEKVLEMDEEHADAYYNLGVAYVFEENNEKALALFKKATEIQPDHFLAGNGVRLLEQEAE | not soluble
MSNSKDLMSEFEKLRQETSKIQYSLIQKLPSEPSSFVENQLLLETQTLCGQLLKNQEEQNILNEKLRNEQKIIKLKHNTEMKSMRDKLETLTTAQAAQKLDFERHFEMMRQSHSAKIVKMERDLRNMKYDLHSLRSDMDSRKNCENRAAPKPEFQIFVKVLGVSYAFKIHREDTVFDIKNDIEHRHDIPQHSYWLSFSGKRLEDHCSIGDYNIQKSSTITMYFRSG | not soluble
MSNSRSILSQPEWRIVDQSSLGPTFHALQSFAMDDTLCTSIGKGESAATMRSWVHHNTIVLGIQDSRLPHLEEGISFLKENNFNVIVRNSGGLAVVLDEGVLNVSLLFQETEKGIDIDLGYDTMWHLIQEMLKDYDVTIEAKEIVGSYCPGSYDLSIRDQKFAGISQRRIRGGVAVQIYLCATGSGSERAALVRDFYNLAIQGEETRFTYPEIVPSTMASLSELLDETITVQDLMMRLLKTLQQFAPKLTPSQLTIDEIPLYETNLQRIIDRNNKALGLEK | not soluble
MSNTERTFIAIKPDGVHRGLVGKIIARFEERGYKLVALKQMTASKAHLEVHYQDLKDKPFFPSLIEYMSSGPVVAMVWQGLDVVKQGRSMLGATNPLASAPGTIRGDFCIQTGRNICHGSDAVDSANREIAHWFKQEEINDYASPFINSWVYE | not soluble
